# Experimental data reported in patent publication US20140120095A1 (Boehringer Ingelheim, published 2014).
# Numbering of substitutions follows the chain as printed. Where two headings read alike, the source gives them in different places.
# T1: human DLL1 (Alexis) (human, UniProt O00548 18-545, limits assumed)
# T1 construct: also called hDLL1
# T1 sequence (looked up): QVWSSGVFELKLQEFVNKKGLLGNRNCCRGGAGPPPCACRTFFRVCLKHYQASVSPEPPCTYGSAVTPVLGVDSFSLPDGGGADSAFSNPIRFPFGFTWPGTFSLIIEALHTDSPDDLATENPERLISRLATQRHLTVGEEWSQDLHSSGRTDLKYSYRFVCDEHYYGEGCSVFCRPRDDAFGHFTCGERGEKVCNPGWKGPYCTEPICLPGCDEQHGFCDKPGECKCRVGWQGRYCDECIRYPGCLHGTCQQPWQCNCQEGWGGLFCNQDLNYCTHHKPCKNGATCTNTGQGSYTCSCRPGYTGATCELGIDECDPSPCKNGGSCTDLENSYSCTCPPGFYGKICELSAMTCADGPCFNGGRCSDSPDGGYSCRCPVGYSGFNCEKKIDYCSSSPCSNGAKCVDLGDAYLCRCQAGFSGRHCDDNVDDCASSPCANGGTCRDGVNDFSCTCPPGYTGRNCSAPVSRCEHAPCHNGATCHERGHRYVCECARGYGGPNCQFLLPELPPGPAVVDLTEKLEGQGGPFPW
# B1: DLLBII56A09 (VHH)
# VHH: EVQLVESGGGLVQPGGSLRLSCAASGFTFDDYAIGWFRQAPGKEPEGISCISSSGGITYYADSVKGRFTTSRDNAKNTVYLQMNSLKPEDTAVYYCATPGIAACRGIHYTGQGTQVTVSS
# notes: also called 56A9; DLLBII56A9
# B2: DLLBII101G08 (VHH)
# VHH: EVQLVESGGGLVQAGGSLRLSCAASGRTFSSYAMAWFRQAPGKEREFVAAIRWSGGTAYYADSVQGRFTISRDNAKNTVYLQMNSLKPEDTAVYYCANRAADTRLGPYEYDYWGQGTQVTVSS
# notes: also called 101G8; DLLBII101G8
# B3: DLLBII115A05 (VHH)
# VHH: EVQLVESGGGLVQPGGSLRLSCAASGFTFGSYDMSWVRRSPGKGPEWVSSINSGGGSTYYADFVKGRFTISRDNAKNTLYLQMNSLKPEDTAVYYCAADRYIRARQGDYWGAYEYDYWGQGTQVTVSS
# notes: also called 115A5; DLLBII115A5
# B4: DLLBII101G08 (VHH, not shown: small tags and cut ends)
# VHH: B2 VHH
# notes: parent VHH; also called 101G08 (wt); 101G8
# B5: DLLBII129B05 (VHH, not shown: small tags and cut ends)
# VHH: B2 VHH with F37Y, F47Y, A101P, G106A, Y112H
# B6: DLLBII129D08 (VHH, not shown: small tags and cut ends)
# VHH: B2 VHH with F37Y, F47Y, A101P, G106E, E109L
# B7: DLLBII129E11 (VHH, not shown: small tags and cut ends)
# VHH: B2 VHH with F37Y, F47Y, A101P, G106R, E109L
# B8: DLLBII015 (VHH, not shown: small tags and cut ends)
# VHH: B3 VHH with F29I, S50A, F63Y, R103W, D108E, E114A
# B9: DLLBII133A09 (VHH, not shown: small tags and cut ends)
# VHH: B3 VHH with S50A, F63Y, R103W, D108E, E114A
# B10: DLLBII133G05 (VHH, not shown: small tags and cut ends)
# VHH: B3 VHH with S50A, A61T, F63Y, R103W, D108E, E114A
# B11: DLLBII136C07 (VHH, not shown: small tags and cut ends)
# VHH: B3 VHH with F63Y, R103W, D108E
# How the values were obtained:
# recombinant human DLL4 [1] = target: T2, recombinant human DLL4 (human, UniProt Q9NR61 25-522); experiment: competition ELISA, biot-hDLL4 to coated hNotch1-Fc
# T2 construct: also called rhDLL4; hDLL4
# Text: Residual binding of biotinylated human DII4 is detected using horseradish peroxidase (HRP) conjugated extravidin (Sigma, St. Louis, Mo., USA) (FIG. 3 A-C). Human DII4 is biotinylated as described above.
# recombinant human DLL4 [2] = target: T2, recombinant human DLL4; experiment: cell-based or functional assay
# recombinant mouse DLL4 = target: T3, recombinant mouse DLL4 (mouse, UniProt Q9JI71 27-532); experiment: binding ELISA, coated rmDLL4
# T3 construct: extracellular domain; also called rmDLL4; mDLL4
# Experimental: In order to determine cross-reactivity to mouse DII4 a binding ELISA is performed. […] Wells are blocked with a casein solution (1% in PBS). VHHs are applied as dilution series and binding is detected using a mouse anti-myc (Roche) and an anti-mouse-AP conjugate (Sigma, St Louis, Mo., USA) (FIG. 7 A-H). As reference, binding to human DII4 is measured.
# recombinant human DLL4 [3] = target: T2, recombinant human DLL4; experiment: SPR Biacore T100, hDLL4 on chip, VHH/Fab injected
# Experimental: Kinetic analysis to determine the affinity of the DII4-VHH interaction is performed by Surface Plasmon Resonance (SPR) on a Biacore T100 instrument. […] Purified VHHs or Fab fragment are injected for 2 minutes at different concentrations (between 10 and 300 nM) and allowed to dissociate for 20 min at a flow rate of 45 μl/min. Between sample injections, the surfaces are regenerated with 10 mM glycine pH1.5 and 100 mM HCl. HBS-N (Hepes buffer pH7.4) is used as running buffer. If possible, data are evaluated by fitting a 1:1 interaction model (Langmuir binding) onto the binding curves. The affinity constant KD is calculated from resulting association and dissociation rate constants (kₐ) and […].
# hDLL4.5 = hDLL4.5 (human); experiment: Biacore, VHH on chip, 200 nM DLL4 sample injected
# hDLL4.3 = hDLL4.3 (human); experiment: Biacore, VHH on chip, 200 nM DLL4 sample injected
# mDLL4.11 = mDLL4.11 (mouse); experiment: Biacore, VHH on chip, 200 nM DLL4 sample injected
# mDLL4.10 = mDLL4.10 (mouse); experiment: Biacore, VHH on chip, 200 nM DLL4 sample injected
# mDLL4.12 = mDLL4.12 (mouse); experiment: Biacore, VHH on chip, 200 nM DLL4 sample injected
# hDLL4.6 = hDLL4.6 (human); experiment: Biacore, VHH on chip, 200 nM DLL4 sample injected
# recombinant human DLL4 [4] = target: T2, recombinant human DLL4; experiment: Biacore, VHH on chip, 200 nM DLL4 sample injected
# [5] = target: T4, human DLL4 overexpressed on cells (human, UniProt Q9NR61 27-685); experiment: cell-based or functional assay
# [6] = target: T4, human DLL4 overexpressed on cells; experiment: competitive FMAT, hNotch1-Fc on CHO-hDLL4
# human Jagged-1 = target: T5, human Jagged-1 (human, UniProt P78504 34-1067, limits assumed); experiment: binding ELISA on coated recombinant human Jagged-1, OD 405 nm
# T5 construct: also called hJagged-1; hJAG1
# Method in brief: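 Plates coated overnight at 4° C with 1 μg/mL ligand, blocked with 1% casein in PBS. VHH dilution series applied; bound VHH detected via mouse anti-myc then anti-mouse-AP conjugate.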
# human DLL1 (Alexis) [7] = target: T1, human DLL1 (Alexis); experiment: binding ELISA on coated human DLL1 (Example 5.8, Example 7), OD 450 nm
# human DLL1 (Alexis) [8] = target: T1, human DLL1 (Alexis); experiment: as above; remark: listed apart in the source
# [9] = target: T6, recombinant human DLL4 (C-terminally His-tagged extracellular domain, R&D Systems) (human, UniProt Q9NR61 25-522, biotinylated in the competition ELISA); experiment: binding ELISA on coated recombinant human DLL4 (Example 5.8, Example 7), OD 450 nm
# T6 construct: also called rhDLL4; hDLL4
# T3 sequence (Q9JI71 27-532): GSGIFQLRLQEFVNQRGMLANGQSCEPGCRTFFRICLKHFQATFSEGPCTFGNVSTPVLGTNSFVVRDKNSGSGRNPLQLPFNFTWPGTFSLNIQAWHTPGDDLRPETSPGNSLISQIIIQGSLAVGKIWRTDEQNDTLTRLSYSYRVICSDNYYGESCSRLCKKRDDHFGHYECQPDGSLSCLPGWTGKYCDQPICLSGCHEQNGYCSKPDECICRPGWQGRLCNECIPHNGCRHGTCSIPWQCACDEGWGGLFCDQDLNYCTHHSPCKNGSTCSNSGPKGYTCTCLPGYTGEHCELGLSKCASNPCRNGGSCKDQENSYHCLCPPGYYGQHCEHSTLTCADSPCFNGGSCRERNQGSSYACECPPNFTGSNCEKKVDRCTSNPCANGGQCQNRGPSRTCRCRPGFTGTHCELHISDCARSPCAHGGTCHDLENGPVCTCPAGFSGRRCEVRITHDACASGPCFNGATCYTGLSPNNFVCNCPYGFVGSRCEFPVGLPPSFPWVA
binder,measurement,setting,value
B1,IC50,recombinant human DLL4 [1],4.9 nM
same,"IC50 (nM) (experiment 1), DLL4 proliferation assay (HUVEC)",recombinant human DLL4 [2],11 nM
same,"IC50 (nM) (experiment 2), DLL4 proliferation assay (HUVEC)",recombinant human DLL4 [2],6.8 nM
same,EC50,recombinant mouse DLL4,6.3 nM
same,Kd,recombinant human DLL4 [3],5.6 nM
same,koff,recombinant human DLL4 [3],0.00093 s⁻¹
same,kon,recombinant human DLL4 [3],170000 M⁻¹ s⁻¹
same,Binding (RU),hDLL4.5,143 RU
same,koff,hDLL4.5,0.0012 s⁻¹
same,Binding (RU),hDLL4.3,125 RU
same,koff,hDLL4.3,0.00074 s⁻¹
same,Binding (RU),mDLL4.11,132 RU
same,koff,mDLL4.11,0.0016 s⁻¹
same,Binding (RU),mDLL4.10,141 RU
same,koff,mDLL4.10,0.0011 s⁻¹
same,Binding (RU),mDLL4.12,161 RU
same,koff,mDLL4.12,0.0013 s⁻¹
same,Binding (RU),hDLL4.6,136 RU
same,koff,hDLL4.6,0.0011 s⁻¹
same,Binding (RU),recombinant human DLL4 [4],281 RU
same,koff,recombinant human DLL4 [4],0.00095 s⁻¹
same,"IC50, DLL4/Notch1 reporter assay",[5],540 nM
same,IC50,[6],10.6 nM
same,binding result,human Jagged-1,no binding (tested: 5e-7 M)
B2,IC50,recombinant human DLL4 [1],9.5 nM
same,"IC50 (nM) (experiment 1), DLL4 proliferation assay (HUVEC)",recombinant human DLL4 [2],401 nM
same,"IC50 (nM) (experiment 2), DLL4 proliferation assay (HUVEC)",recombinant human DLL4 [2],112 nM
same,EC50,recombinant mouse DLL4,53.9 nM
same,Kd,recombinant human DLL4 [3],52 nM
same,koff,recombinant human DLL4 [3],0.0022 s⁻¹
same,kon,recombinant human DLL4 [3],43000 M⁻¹ s⁻¹
same,Binding (RU),hDLL4.5,266 RU
same,koff,hDLL4.5,0.00219 s⁻¹
same,Binding (RU),hDLL4.3,198 RU
same,koff,hDLL4.3,0.00465 s⁻¹
same,Binding (RU),mDLL4.11,210 RU
same,koff,mDLL4.11,0.00616 s⁻¹
same,Binding (RU),mDLL4.10,189 RU
same,koff,mDLL4.10,0.00514 s⁻¹
same,Binding (RU),mDLL4.12,244 RU
same,koff,mDLL4.12,0.00452 s⁻¹
same,Binding (RU),hDLL4.6,229 RU
same,koff,hDLL4.6,0.0022 s⁻¹
same,Binding (RU),recombinant human DLL4 [4],373 RU
same,koff,recombinant human DLL4 [4],0.002 s⁻¹
same,"IC50, DLL4/Notch1 reporter assay",[5],2760 nM
same,IC50,[6],24.6 nM
same,binding result,human Jagged-1,no binding (tested: 5e-7 M)
B3,IC50,recombinant human DLL4 [1],9.1 nM
same,"IC50 (nM) (experiment 1), DLL4 proliferation assay (HUVEC)",recombinant human DLL4 [2],10000 nM
same,EC50,recombinant mouse DLL4,33.4 nM
same,Kd,recombinant human DLL4 [3],25 nM
same,koff,recombinant human DLL4 [3],0.0039 s⁻¹
same,kon,recombinant human DLL4 [3],150000 M⁻¹ s⁻¹
same,Binding (RU),hDLL4.5,162 RU
same,koff,hDLL4.5,0.0042 s⁻¹
same,Binding (RU),hDLL4.3,137 RU
same,koff,hDLL4.3,0.0035 s⁻¹
same,Binding (RU),mDLL4.11,121 RU
same,koff,mDLL4.11,0.0066 s⁻¹
same,Binding (RU),mDLL4.10,121 RU
same,koff,mDLL4.10,0.0038 s⁻¹
same,Binding (RU),mDLL4.12,152 RU
same,koff,mDLL4.12,0.0031 s⁻¹
same,Binding (RU),hDLL4.6,152 RU
same,koff,hDLL4.6,0.0041 s⁻¹
same,Binding (RU),recombinant human DLL4 [4],324 RU
same,koff,recombinant human DLL4 [4],0.0035 s⁻¹
same,"IC50, DLL4/Notch1 reporter assay",[5],1740 nM
same,IC50,[6],22 nM
same,binding result,human Jagged-1,no binding (tested: 5e-7 M)
B4,binding result,human DLL1 (Alexis) [7],no binding (tested: log[M] -6.1 (about 8e-7 M))
B5,binding result,human DLL1 (Alexis) [7],no binding (tested: log[M] -6.1 (about 8e-7 M))
B6,binding result,human DLL1 (Alexis) [7],no binding (tested: log[M] -6.1 (about 8e-7 M))
B7,binding result,human DLL1 (Alexis) [7],no binding (tested: log[M] -6.1 (about 8e-7 M))
B8,binding result,human DLL1 (Alexis) [8],no binding (tested: log[M] -6.1 (about 8e-7 M))
same,EC50 (read off the curve),[9],~600 pM
B9,binding result,human DLL1 (Alexis) [8],no binding (tested: log[M] -6.1 (about 8e-7 M))
same,EC50 (read off the curve),[9],~600 pM
B10,binding result,human DLL1 (Alexis) [8],no binding (tested: log[M] -6.1 (about 8e-7 M))
same,EC50 (read off the curve),[9],~400 pM
B11,binding result,human DLL1 (Alexis) [8],no binding (tested: log[M] -6.1 (about 8e-7 M))
same,EC50 (read off the curve),[9],~600 pM
